# Test results: patent US20030171289A1 (INSTITUT PASTEUR, published 2003)
# B1: synthetic peptide V1 (ATWLPPR) (peptide)
# peptide: ATWLPPR
# notes: Synthetic peptide (Neosystem); also called V1 peptide
# B2: phage-displayed peptide K6 (M13 phage clone) (peptide)
# chain: YSIPKSS
# notes: not shown: M13 phage coat protein of the Ph.D.-7 library
# B3: phage-displayed peptide K2 (M13 phage clone) (peptide)
# chain: WPTPPYA
# notes: as for B2
# B4: phage-displayed peptide K7 (M13 phage clone) (peptide)
# chain: ALQPRYL
# notes: as for B2
# B5: phage-displayed peptide K3 (M13 phage clone) (peptide)
# chain: TPHNTVS
# notes: as for B2
# B6: phage-displayed peptide K1 (M13 phage clone) (peptide)
# chain: YLTMPTP
# notes: as for B2
# B7: phage-displayed peptide K4 (M13 phage clone) (peptide)
# chain: SLPAHAR
# notes: as for B2
# B8: phage-displayed peptide K5 (M13 phage clone) (peptide)
# chain: HSSLQTP
# notes: as for B2
# B9: phage-displayed peptide V5 (M13 phage clone) (peptide)
# chain: ILDNYKL
# notes: as for B2
# B10: phage-displayed peptide V4 (M13 phage clone) (peptide)
# chain: YHSSFQA
# notes: as for B2
# B11: phage-displayed peptide V7 (M13 phage clone) (peptide)
# chain: YAIMPLV
# notes: as for B2
# B12: phage-displayed peptide V6 (M13 phage clone) (peptide)
# chain: LPPNPTK
# notes: as for B2
# B13: phage-displayed peptide V2 (M13 phage clone) (peptide)
# chain: NPRALNY
# notes: as for B2
# B14: phage-displayed peptide V3 (M13 phage clone) (peptide)
# chain: ANLFKAK
# notes: as for B2
# Target: T1, KDR (kinase domain receptor, VEGFR-2) expressed on cells (UniProt P35968 20-1356, limits assumed)
# T1 construct: whole, on cells; The same molecule is used for KDR on CHO-KDR cells and for VEGF-R2 on HUV-EC cells; the cells are named under assay; also called KDR/Flk-1; VR2
# T1 sequence (P35968 20-1356 limits assumed): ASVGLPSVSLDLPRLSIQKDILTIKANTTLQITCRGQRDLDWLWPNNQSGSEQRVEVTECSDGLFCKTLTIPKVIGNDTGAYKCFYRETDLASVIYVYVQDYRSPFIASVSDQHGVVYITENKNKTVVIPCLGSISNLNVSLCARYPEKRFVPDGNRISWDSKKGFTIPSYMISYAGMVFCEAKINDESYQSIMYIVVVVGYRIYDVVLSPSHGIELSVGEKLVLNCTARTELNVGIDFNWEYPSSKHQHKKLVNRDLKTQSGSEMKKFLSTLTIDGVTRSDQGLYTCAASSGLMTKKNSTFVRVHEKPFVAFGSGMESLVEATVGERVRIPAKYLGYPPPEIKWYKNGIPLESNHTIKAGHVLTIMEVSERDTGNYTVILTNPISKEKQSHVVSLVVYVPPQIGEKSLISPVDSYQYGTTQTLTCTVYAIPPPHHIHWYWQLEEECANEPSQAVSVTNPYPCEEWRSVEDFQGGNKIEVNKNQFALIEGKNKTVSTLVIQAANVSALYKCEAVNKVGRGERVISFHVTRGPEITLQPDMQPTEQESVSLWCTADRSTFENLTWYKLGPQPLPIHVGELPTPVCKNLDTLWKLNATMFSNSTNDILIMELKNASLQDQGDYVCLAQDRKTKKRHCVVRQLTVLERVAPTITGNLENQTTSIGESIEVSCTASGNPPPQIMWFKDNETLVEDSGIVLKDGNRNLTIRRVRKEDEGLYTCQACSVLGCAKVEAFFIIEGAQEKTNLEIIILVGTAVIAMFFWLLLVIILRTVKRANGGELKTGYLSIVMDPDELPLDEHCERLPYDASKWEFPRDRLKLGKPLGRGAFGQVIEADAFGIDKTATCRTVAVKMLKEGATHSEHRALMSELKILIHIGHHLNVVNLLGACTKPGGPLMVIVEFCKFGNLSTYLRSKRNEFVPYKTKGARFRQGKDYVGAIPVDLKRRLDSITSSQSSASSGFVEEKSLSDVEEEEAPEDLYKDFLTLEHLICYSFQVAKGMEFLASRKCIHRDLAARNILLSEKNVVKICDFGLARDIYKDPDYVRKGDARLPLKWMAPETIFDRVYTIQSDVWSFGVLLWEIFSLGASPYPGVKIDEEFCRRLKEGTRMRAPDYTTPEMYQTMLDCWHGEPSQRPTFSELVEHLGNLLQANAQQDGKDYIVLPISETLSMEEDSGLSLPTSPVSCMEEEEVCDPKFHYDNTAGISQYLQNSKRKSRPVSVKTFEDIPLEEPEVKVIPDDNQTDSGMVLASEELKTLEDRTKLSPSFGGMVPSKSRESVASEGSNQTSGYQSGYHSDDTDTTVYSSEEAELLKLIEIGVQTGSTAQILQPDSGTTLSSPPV
# Experiment: competition with 125I-VEGF for binding to CHO-KDR cells, fixed peptide concentration
# Method: (§1) Competition assay of binding to CHO-KDR cells. CHO-KDR cells were seeded in 24-well plates at a density of 5×10⁵ cells/well. After 24 h, subconfluent plates were transferred at 4 C, and all subsequent operations were done at 4 C. […] After 3 h, cells were washed five times with binding buffer and solubilized by the addition of 0.5 M NaOH.
row,Binder,binding result
1,SLPAHAR (Synthetic peptide (Neosystem)) [synthetic peptide K4 (SLPAHAR)],binds

# Target: T1, KDR (kinase domain receptor, VEGFR-2) …
# Experiment: displacement of 125I-VEGF165 from CHO-KDR cells, curve fitting (CI50)
row,Binder,IC50 [µM]
1,B1,18.8
2,AAWLPPR (Ala scan analogue of ATWLPPR (V1)) [V1 analogue A2],30.9
3,ATALPPR (Ala scan analogue of ATWLPPR (V1)) [V1 analogue A3],26.8
4,ATWAPPR (Ala scan analogue of ATWLPPR (V1)) [V1 analogue A4],60.7
5,ATWLPAR (Ala scan analogue of ATWLPPR (V1)) [V1 analogue A6],22.4
6,ATWLAPR (Ala scan analogue of ATWLPPR (V1)) [V1 analogue A5],29.1

# Target: T1, KDR (kinase domain receptor, VEGFR-2) …
# Experiment: phage ELISA on CHO-KDR cells, 10^13 pfu/ml
# Method: Results are representative of three independent assays.
# (§2) Exponentially growing CHO-KDR cells were seeded in 96-well microtiter plates at 7×10⁴ cells/well and left overnight at 37 C. Cells were fixed with paraformaldehyde (4% in PBS) for 15 min at room temperature and washed with PBS. Wells were then filled with PBS-Glycine 0.2%, kept for 15 min at room temperature and then washed with PBS. Phage particles (10¹² or 10¹³/ml) were added to each well and incubated 2 h at room temperature. Wells were washed with PBS and the amount of bound phage was detected with peroxidase-conjugated anti-M13 phage serum (Pharmacia Biotech, Uppsala, Sweden).
row,Binder,binding result
1,B2,binds
2,B3,binds
3,B4,binds
4,B5,binds
5,B6,binds
6,B7,binds
7,B8,binds

# Target: T1, KDR (kinase domain receptor, VEGFR-2) …
# Experiment: displacement of 125I-VEGF165 from CHO-KDR cells
row,Binder,Efficiency (% Emax)
1,B1,100
2,AAWLPPR (Ala scan analogue of ATWLPPR (V1)) [V1 analogue A2],61
3,ATALPPR (Ala scan analogue of ATWLPPR (V1)) [V1 analogue A3],70
4,ATWAPPR (Ala scan analogue of ATWLPPR (V1)) [V1 analogue A4],31
5,ATWLPAR (Ala scan analogue of ATWLPPR (V1)) [V1 analogue A6],84
6,ATWLAPR (Ala scan analogue of ATWLPPR (V1)) [V1 analogue A5],65

# Target: T1, KDR (kinase domain receptor, VEGFR-2) …
# Experiment: competition with 125I-VEGF for binding to CHO-KDR cells
# Method: as §1
row,Binder,IC50 [µM]
1,B1,~80

# Target: T2, neuropilin 1 (UniProt O14786 22-923, limits assumed)
# T2 construct: whole, on cells; also called NP 1; NP1
# T2 sequence (O14786 22-923 limits assumed): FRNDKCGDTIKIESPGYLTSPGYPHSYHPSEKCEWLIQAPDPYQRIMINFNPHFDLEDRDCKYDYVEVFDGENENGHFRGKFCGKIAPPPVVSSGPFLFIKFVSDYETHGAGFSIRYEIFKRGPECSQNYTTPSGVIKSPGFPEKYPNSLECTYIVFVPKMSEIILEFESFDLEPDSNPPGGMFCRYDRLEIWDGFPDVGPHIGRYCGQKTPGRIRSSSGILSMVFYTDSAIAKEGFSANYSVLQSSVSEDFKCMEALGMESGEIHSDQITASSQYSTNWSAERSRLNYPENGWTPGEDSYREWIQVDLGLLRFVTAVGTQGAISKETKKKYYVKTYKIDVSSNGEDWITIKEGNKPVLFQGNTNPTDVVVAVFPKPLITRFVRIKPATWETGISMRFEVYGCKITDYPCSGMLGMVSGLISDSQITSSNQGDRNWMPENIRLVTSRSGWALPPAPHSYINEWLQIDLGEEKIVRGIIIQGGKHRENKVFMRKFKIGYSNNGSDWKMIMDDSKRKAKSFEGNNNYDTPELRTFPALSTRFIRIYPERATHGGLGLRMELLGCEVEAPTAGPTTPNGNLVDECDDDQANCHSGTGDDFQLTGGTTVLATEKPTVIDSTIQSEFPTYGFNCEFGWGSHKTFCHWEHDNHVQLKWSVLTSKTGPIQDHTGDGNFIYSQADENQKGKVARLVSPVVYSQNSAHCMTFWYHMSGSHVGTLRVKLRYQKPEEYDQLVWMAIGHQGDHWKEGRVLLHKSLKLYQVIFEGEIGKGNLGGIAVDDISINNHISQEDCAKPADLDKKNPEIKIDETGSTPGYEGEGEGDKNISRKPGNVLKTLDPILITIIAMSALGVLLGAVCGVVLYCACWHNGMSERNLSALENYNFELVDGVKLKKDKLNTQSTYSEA
# Experiment: displacement of 125I-VEGF165 from MDA-MB 231 cells (neuropilin 1, no VEGF-R2)
row,Binder,IC50 [µg/mL]
1,B1,38

# Target: T1, KDR (kinase domain receptor, VEGFR-2) …
# Experiment: displacement of 125I-VEGF165 from CHO-KDR cells
# Remark: another data set of the same source
row,Binder,factor by which the inhibitory efficiency is lowered against V1 [fold]
1,AAAAAAR (position 1 is already alanine) [V1 analogue A11 (the 6 amino acids upstream to arginine substituted by alanine)],10

# Target: T1, KDR (kinase domain receptor, VEGFR-2) …
# Experiment: phage ELISA on fixed CHO-KDR cells
# Method: as §2
row,Binder,binding result
1,B9,binds
2,B10,binds
3,B11,binds
4,B12,binds
5,B13,binds
6,B14,binds
